From article PMC7019923

T1: squid p32 (AUF1 homolog) (Aedes albopictus (cDNA from C6/36 cells), UniProt A0A023EP16 2-301)
T1 sequence: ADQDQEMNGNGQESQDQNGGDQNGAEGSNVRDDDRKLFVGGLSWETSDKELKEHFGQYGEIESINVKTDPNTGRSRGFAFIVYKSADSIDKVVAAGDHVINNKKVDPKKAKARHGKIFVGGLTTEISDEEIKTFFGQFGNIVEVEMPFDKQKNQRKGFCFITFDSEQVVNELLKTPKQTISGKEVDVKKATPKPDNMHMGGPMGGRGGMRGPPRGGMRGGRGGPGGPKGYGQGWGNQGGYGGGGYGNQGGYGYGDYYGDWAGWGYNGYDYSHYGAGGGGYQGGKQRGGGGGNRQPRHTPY

T2: squid p30 (AUF1 homolog) (Aedes albopictus (cDNA from C6/36 cells), UniProt A0ABM1XVA0 2-281)
T2 sequence: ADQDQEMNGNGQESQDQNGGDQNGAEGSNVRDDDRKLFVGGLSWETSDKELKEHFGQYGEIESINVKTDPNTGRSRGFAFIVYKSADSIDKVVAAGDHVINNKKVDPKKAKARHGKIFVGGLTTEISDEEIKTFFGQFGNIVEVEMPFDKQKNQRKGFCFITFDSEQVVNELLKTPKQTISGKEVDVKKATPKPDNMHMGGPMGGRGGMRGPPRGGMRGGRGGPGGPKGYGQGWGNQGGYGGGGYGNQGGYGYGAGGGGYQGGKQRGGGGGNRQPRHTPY

B1: random RNA (ssRNA)
RNA: CUAAGAUGCUCGCUGC
B2: AU/GU-rich RNA (ssRNA)
RNA: UAUUUAGUGGUGUUAG

Legend:
squid p32 (AUF1 homolog) = biological target: T1, squid p32 (AUF1 homolog); assay: fluorescence intensity titration; settings: protein: recombinant; tags: none after cleavage (SUMO fusion removed by SUMO protease)
squid p30 (AUF1 homolog) = biological target: T2, squid p30 (AUF1 homolog); assay: fluorescence intensity titration; settings: protein: recombinant; tags: none after cleavage (SUMO fusion removed by SUMO protease)

| Binder | Kd (squid p32 (AUF1 homolog)) [µM] | Kd (squid p30 (AUF1 homolog)) [µM] |
| --- | --- | --- |
| B1 | 0.63 | 0.25 |
| B2 | 0.13 | 0.013 |
